# Reference: patent US7297515 (MYRIAD GENETICS, dated 2007)
# B1: zinc finger protein 202, alt. transcript beta (ZNF202b), bait fragment amino acids 33-118 (other, UniProt P04386 1-147, looked up)
# chain: MKLLSSIEQACDICRLKKLKCSKEKPKCAKCLKNNWECRYSPKTKRSPLTRAHLTEVESRLERLEQLFLLIFPREDLDMILKMDSLQDIKALLTGLFVQDNVNKDAVTDRLASVETDMPLTLRQHRISATSSSEESSNKGQRQLTVSSVLQRDDPVLETSHQNFRRFRYQEAASPREALIRLRELCHQWLRPERRTKEQILELLVLEQFLTVLPGELQSWVRGQRPESGEEAV
# notes: also called ZNF202beta; ZNF202 m1
# B2: novel protein PN7745, prey fragment amino acids 44-171 (other, not shown: small tags and cut ends)
# chain: ANFNQSGNIADSSLSFTFTNSSNGPNLITTQTNSQALSQPIASSNVHDNFMNNEITASKIDDGNNSKPLSPGWTDQTAYNAFGITTGMFNTTTMDDVYNYLFDDEDTPPNPKKENAADAESFRQRFRWFCYSEVAGPRKALSQLWELCNQWLRPDIHTKEQILELLVFEQFLTILPGEIRIWVKSQHPESSEEVVTLIEDLTQILEEKDPVSEDSTVSQEENSKEDKMVTVCPNTESCESAL
# notes: range 768-881; Yeast two-hybrid prey
# B3: novel protein PN7745, prey fragment amino acids 2-171 (other, not shown: small tags and cut ends)
# chain: ANFNQSGNIADSSLSFTFTNSSNGPNLITTQTNSQALSQPIASSNVHDNFMNNEITASKIDDGNNSKPLSPGWTDQTAYNAFGITTGMFNTTTMDDVYNYLFDDEDTPPNPKKEQAVVPLNKMTAISPEPQTLASTEQNEVPRVVTSGEQEAILRGNAADAESFRQRFRWFCYSEVAGPRKALSQLWELCNQWLRPDIHTKEQILELLVFEQFLTILPGEIRIWVKSQHPESSEEVVTLIEDLTQILEEKDPVSEDSTVSQEENSKEDKMVTVCPNTESCESAL
# notes: as for B2
# B4: novel protein PN7745, prey fragment amino acids 2-156 (other, not shown: small tags and cut ends)
# chain: ANFNQSGNIADSSLSFTFTNSSNGPNLITTQTNSQALSQPIASSNVHDNFMNNEITASKIDDGNNSKPLSPGWTDQTAYNAFGITTGMFNTTTMDDVYNYLFDDEDTPPNPKKEQAVVPLNKMTAISPEPQTLASTEQNEVPRVVTSGEQEAILRGNAADAESFRQRFRWFCYSEVAGPRKALSQLWELCNQWLRPDIHTKEQILELLVFEQFLTILPGEIRIWVKSQHPESSEEVVTLIEDLTQILEEKDPVSEDSTVSQEENSKEDK
# notes: as for B2
# Columns and labels:
# [1] = target: T1, novel protein PN1851, fragment residues 14-369 (human, UniProt P04386 768-881 (Saccharomyces cerevisiae entry)); experiment: yeast two-hybrid search, bait ZNF202 33-118
# T1 construct: range 768-881
# Source text: (§1) The new construct was selected directly in the yeast strain PNY200 for its ability to drive tryptophane synthesis (genotype of this strain: MATα trp1-901 leu2-3, 112 ura3-52 his3-200 ade2 gal4Δ gal80). In these yeast cells, the bait was produced as a C-terminal fusion protein with the DNA binding domain of the transcription factor Gal4 (amino acids 1 to 147). Prey libraries were transformed into the yeast strain BK100 (genotype of this strain: MATa trp1-901 leu2-3,112 ura3-52 his3-200 gal4Δ gal80 LYS2::GAL-HIS3 GAL2-ADE2 met2::GAL7-lacZ), and selected for the ability to drive leucine synthesis. In these yeast cells, each cDNA was expressed as a fusion protein with the transcription activation domain of the transcription factor Gal4 (amino acids 768 to 881) and a 9 amino acid hemagglutinin epitope tag. PNY200 cells (MATα mating type), expressing the bait, were then mated with BK100 cells (MATa mating type), expressing prey proteins from a prey library. The resulting diploid yeast cells expressing proteins interacting with the bait protein were selected for the ability to synthesize tryptophan, leucine, histidine, and adenine. […]
# [2] = target: T2, zinc finger protein 202, alt. transcript beta (ZNF202b), bait fragment amino acids 1-199 (human, UniProt P04386 1-147; O95125 1-199); experiment: yeast two-hybrid; prey fragment isolated with ZNF202b bait 1-199
# T2 construct: also called ZNF202beta; ZNF202 m1
# Source text: as §1, with “In” for “The new construct was selected directly in the yeast strain PNY200 for its ability to drive tryptophane synthesis (genotype of this strain: MATα trp1-901 leu2-3, 112 ura3-52 his3-200 ade2 gal4Δ gal80). In”, “adenine. DNA was prepared from each clone, transformed by electroporation into *E. coli* strain KC8 (Clontech KC8 electrocompetent cells, Catalog No. C2023-1), and the cells were selected on ampicillin-containing plates in the absence of either tryptophane (selection for the bait plasmid) or leucine (selection for the library plasmid). DNA for both plasmids was prepared and sequenced by the dideoxynucleotide chain termination method.” for “adenine.”
# [3] = target: T3, zinc finger protein 202, alt. transcript beta (ZNF202b), bait fragment amino acids 1-224 (human, UniProt P04386 1-147; O95125 1-224); experiment: yeast two-hybrid; prey fragment isolated with ZNF202b bait 1-224
# T3 construct: also called ZNF202beta; ZNF202 m1
# Source text: as §1, with “In” for “The new construct was selected directly in the yeast strain PNY200 for its ability to drive tryptophane synthesis (genotype of this strain: MATα trp1-901 leu2-3, 112 ura3-52 his3-200 ade2 gal4Δ gal80). In”, “adenine. DNA was prepared from each clone, transformed by electroporation into *E. coli* strain KC8 (Clontech KC8 electrocompetent cells, Catalog No. C2023-1), and the cells were selected on ampicillin-containing plates in the absence of either tryptophane (selection for the bait plasmid) or leucine (selection for the library plasmid). DNA for both plasmids was prepared and sequenced by the dideoxynucleotide chain termination method.” for “adenine.”
Binder,binding result [1],binding result [2],binding result [3]
B1,binds,–,–
B2,–,binds,–
B3,–,binds,binds
B4,–,–,binds
